How the values were obtained:
[1] = target: heat shock protein 60 (Hsp60), bovine brain (bovine (endogenous in bovine brain)) (UniProt P31081); assay: co-IP; Mono S active fraction from bovine brain, anti-Hsp60 antibody; N-SMase activity recovered in the immunoprecipitates after resuspension in IP buffer (data not shown)
[2] = target: heat shock protein 60 (Hsp60), bovine brain (bovine (endogenous in bovine brain)) (UniProt P31081); assay: co-IP; active N-SMase fraction (Mono S or Superose 12) from bovine brain, holding both proteins together; anti-Hsp60 or anti-N-SMase2 antibody on Protein A Sepharose, 4 h at 4°C; N-SMase activity of supernatants and immunoprecipitates, immunoblot; with indicated concentrations of Triton X-100 in one panel

Chain of UniProt P31081 (P31081 27-573): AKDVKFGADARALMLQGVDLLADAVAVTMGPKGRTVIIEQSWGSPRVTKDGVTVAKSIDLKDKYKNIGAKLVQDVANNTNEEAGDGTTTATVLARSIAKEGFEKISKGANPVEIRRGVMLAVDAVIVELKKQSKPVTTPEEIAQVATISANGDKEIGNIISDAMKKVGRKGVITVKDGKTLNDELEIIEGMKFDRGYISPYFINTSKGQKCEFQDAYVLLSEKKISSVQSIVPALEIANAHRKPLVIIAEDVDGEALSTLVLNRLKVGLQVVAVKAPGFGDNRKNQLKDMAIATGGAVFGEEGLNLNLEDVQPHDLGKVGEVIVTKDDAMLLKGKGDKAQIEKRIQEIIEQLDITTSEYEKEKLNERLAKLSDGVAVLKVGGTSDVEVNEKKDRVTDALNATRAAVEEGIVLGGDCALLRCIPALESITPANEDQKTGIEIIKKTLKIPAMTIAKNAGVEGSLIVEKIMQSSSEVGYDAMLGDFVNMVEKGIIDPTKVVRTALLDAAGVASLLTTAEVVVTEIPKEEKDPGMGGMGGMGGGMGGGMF

“neutral sphingomyelinase 2 (N-SMase2), bovine brain, purified as N-SMase ε (enzyme)” was tested, and the percent of total N-SMase activity recovered in the anti-Hsp60 immunoprecipitates [1] was 10% and the percent of N-SMase activity precipitated by anti-Hsp60 antibody [2] was 20%.
